Assay results taken from patent publication US20120093719A1 (PROSCAN RX PHARMA, published 2012).
One block for each binder: values may come before it.

Experiments:
[1] = target: T1, prostate specific membrane antigen (PSMA) (human, UniProt Q04609 1-750); assay: ELISA, serially diluted antibody on membrane preparation of PSMA-expressing LNCaP cells against PSMA-negative PC-3
T1 construct: whole, on cells; In the assays PSMA stood as endogenous protein in LNCaP cell membrane preparations (ELISA) or LNCaP lysate (western blot); The background says PSMA forms a noncovalent homodimer
Method: FIG. 4: immunoreactivity mAb1 to cancer cell line. Serially diluted purified antibody was tested by ELISA on a cell membrane preparation that express PSMA (LNCaP) or not (PC-3). The antibody reacts strongly with the LNCaP preparation while the PC-3 remains unreactive;
Immunoreactivity of mAb1_against cancer cell line was tested by ELISA. Serially diluted purified antibody was tested on a cell membrane preparation that express PSMA (LNCaP) or not (PC-3).

[2] = target: T1, prostate specific membrane antigen …; assay: ELISA on LNCaP or PC-3 membrane preparation
Method: An ELISA assay was used to test the reactivity and specificity of purified chimeric anti-PSMA antibodies. Briefly, 96-well plates (Immulon 2HB) were coated overnight at 4° C. or for 2 h at 37° C. with 100 uL of PBS containing 5 ug of cell membrane preparation. Plates were washed four times with 200 uL of 10 mM Tris-HCl, 150 mM NaCl, and 0.1% Tween-20 (TBST, pH 7.5), and blocked for 1 h with 200 uL of TBST containing 5% FBS. Plates were then washed and incubated for 1 h at room temperature using 100 uL of serially diluted purified chimeric anti-PSMA antibodies in TBST containing 5% FBS. Antibody binding was detected by the sequential addition, followed by washing, of 100 uL of horseradish peroxidase (HRP) conjugated goat anti-human IgG whole molecule (Jackson Immunoresearch) diluted 1:5000 in TBST containing 5% FBS, for 1 h at room temperature, and 100 uL of HRP colorimetric substrate solution 3,3′,5,5′-tetramethylbenzidine (BioFX Laboratories). The reaction was stopped with the addition of 100 uL of 0.5 M sulphuric acid and the absorbance was read at 450 nm in a microplate reader (Bio-Tek Instruments).
The reactivity of the DOTA conjugated antibody (chAb1-DOTA) was compared to the unconjugated antibody (chAb1) by ELISA on a cell membrane preparation that express PSMA (LNCaP) or not (PC-3) (FIG. 14).

[3] = target: T1, prostate specific membrane antigen …; assay: ELISA after 5 days at 37 C in 0.1M glycine buffered with Tris to pH 7.4

T1 sequence (Q04609 whole entry): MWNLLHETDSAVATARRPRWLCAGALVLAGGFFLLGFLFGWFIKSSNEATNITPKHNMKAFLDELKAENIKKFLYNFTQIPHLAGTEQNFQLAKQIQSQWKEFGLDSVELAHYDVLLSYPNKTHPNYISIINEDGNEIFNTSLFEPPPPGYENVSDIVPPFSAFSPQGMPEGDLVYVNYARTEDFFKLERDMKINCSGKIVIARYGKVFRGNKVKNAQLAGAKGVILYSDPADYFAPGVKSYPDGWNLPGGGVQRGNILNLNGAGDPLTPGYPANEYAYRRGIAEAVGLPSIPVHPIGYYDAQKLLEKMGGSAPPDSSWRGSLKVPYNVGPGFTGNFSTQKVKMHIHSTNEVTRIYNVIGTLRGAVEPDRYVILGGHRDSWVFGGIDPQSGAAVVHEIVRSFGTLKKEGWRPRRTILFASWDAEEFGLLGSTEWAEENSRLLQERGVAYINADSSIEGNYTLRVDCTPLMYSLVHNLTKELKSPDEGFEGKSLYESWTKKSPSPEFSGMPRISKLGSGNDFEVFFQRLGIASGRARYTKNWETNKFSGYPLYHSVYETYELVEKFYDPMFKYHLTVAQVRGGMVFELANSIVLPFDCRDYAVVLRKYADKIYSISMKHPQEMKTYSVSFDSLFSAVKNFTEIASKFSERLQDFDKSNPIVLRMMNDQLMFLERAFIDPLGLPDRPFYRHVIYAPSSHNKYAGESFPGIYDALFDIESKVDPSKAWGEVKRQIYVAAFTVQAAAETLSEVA

binding result [1]: binds
B1: murine monoclonal anti-PSMA antibody mAb1 (antibody, V domains shown)
VH: EVQLQQSGAELVKPGASVKLSCTASGFNIKDTYMHWVKQRPEQGLEWIGGIDPADGETKYDPKFQDKATITTDTSSNTVYLQISSLTSEDTAVYYCVRSFDYWGQGTTLTVSS
VL: DVVMTQTPLSLPVSLGDQASISCRSSQSLVHSNGNTYLHWYLQKPGQSPKFLIYKASNRFSGVPDRFSGRGSGTDFTLKISRVEAEDLGVYFCFQSTHVPYTFGGGTKLEIKR
notes: also called murine anti-PSMA antibody; murine parental antibody

binding result [2]: binds
B2: DOTA-conjugated chimeric anti-PSMA antibody chAb1-DOTA (antibody, V domains shown)
VH: B1 VH
VL: B1 VL
modifications: DOTA conjugated through DOTA-NHS ester; sites and chain not stated
notes: also called DOTA conjugated antibody

binding result [3]: binds
B3: murine/human chimeric anti-PSMA antibody chAb1 (antibody, human IgG1, kappa, V domains shown)
VH: B1 VH
VL: B1 VL
notes: also called chimeric antibody
